Earlier results as cited in paper PMC8083718.

Target: ACE2 (Homo sapiens) (UniProt Q9BYF1)
Sequence (Q9BYF1 18-740): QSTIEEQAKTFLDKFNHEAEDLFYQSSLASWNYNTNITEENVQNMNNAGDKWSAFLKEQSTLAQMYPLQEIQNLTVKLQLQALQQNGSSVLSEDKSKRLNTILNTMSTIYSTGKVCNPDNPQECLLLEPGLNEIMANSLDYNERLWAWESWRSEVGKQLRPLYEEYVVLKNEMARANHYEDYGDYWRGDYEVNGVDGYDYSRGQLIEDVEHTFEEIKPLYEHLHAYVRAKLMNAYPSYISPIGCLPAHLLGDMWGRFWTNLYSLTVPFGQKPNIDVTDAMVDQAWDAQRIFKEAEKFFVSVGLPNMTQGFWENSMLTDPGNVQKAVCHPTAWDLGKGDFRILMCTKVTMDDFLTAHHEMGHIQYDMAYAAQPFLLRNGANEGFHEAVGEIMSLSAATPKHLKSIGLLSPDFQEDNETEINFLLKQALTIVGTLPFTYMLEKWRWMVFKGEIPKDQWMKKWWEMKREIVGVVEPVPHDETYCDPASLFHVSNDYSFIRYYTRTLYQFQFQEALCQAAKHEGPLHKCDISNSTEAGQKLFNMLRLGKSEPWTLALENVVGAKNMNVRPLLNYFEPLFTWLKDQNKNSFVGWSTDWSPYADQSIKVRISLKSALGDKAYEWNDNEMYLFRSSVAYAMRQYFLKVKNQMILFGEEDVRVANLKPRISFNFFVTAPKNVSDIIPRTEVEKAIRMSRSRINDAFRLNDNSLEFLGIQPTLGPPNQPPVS

With spike protein (from UniProt P59594) as the substance, how does the Kd read?
The Kd was 0.12 nM.
